# From patent US11198713B2, “Agents modulating beta-catenin functions and methods thereof” (FOG PHARMACEUTICALS, INC., priority 2017, dated 2021)
# Numbered stars: 1 amine (or outer) side, 2 acyl side, 3 side chain; on linkers, the order of the positions; unused ones are H or OH. Bridge positions count the residues as written; N and C are the ends. Square brackets hold non-standard residues; d marks the D form. Primed or numbered codes have the meaning given here. MB(4) = Monomer B (PyrS), N-Alloc pyrrolidine stapling residue, (S)-3-amino-1-(allyloxycarbonyl)pyrrolidine-3-carboxylic acid, C=CCOC(=O)N1CC[C@@](N[*:1])(C(=O)[*:2])C1; R4″ = stapling residue, (R)-2-(3-butenyl)alanine (drawn only), C=CCC[C@@](C)(N[*:1])C(=O)[*:2]; MB(3) = Monomer B = PyrS, pyrrolidine stapling residue with allyl carbamate; MI = Monomer I = ReN, acyclic amine-bearing olefin stapling residue; R7 = (R)-2-(6-heptenyl)alanine, C=CCCCCC[C@@](C)(N[*:1])C(=O)[*:2]; R6 = (R)-2-(5-hexenyl)alanine, C=CCCCC[C@@](C)(N[*:1])C(=O)[*:2]; S6 = (S)-2-(5-hexenyl)alanine, C=CCCCC[C@](C)(N[*:1])C(=O)[*:2]; MB(5) = Monomer B (PyrS), N-Alloc pyrrolidine stapling residue; R4 = (R)-2-(3-butenyl)alanine, C=CCC[C@@](C)(N[*:1])C(=O)[*:2]; MG = Monomer G = RdN, acyclic alkyl-N(Alloc) stapling residue; MC = Monomer C = PyrR, Alloc-pyrrolidine stapling residue; MA = Monomer A (Az), N-Alloc azetidine stapling residue; S7 = C[C@@](CCCCCC=[*:3])(N[*:1])C(=O)[*:2]; R8 = C=CCCCCCC[C@@](C)(N)C(=O)O; αMeL = CC(C)C[C@](C)(N)C(=O)O; R5 = C=CCCC[C@@](C)(N)C(=O)O; αMeV = CC(C)[C@](C)(N)C(=O)O; S5 = C=CCCC[C@](C)(N)C(=O)O; MB(7) = not defined here; Aib = CC(C)(N)C(=O)O
# T1: full-length beta-catenin (UniProt P35222 2-781, limits assumed)
# T1 construct: mature; also called full-length ß-Catenin; β-catenin
# T1 sequence (looked up): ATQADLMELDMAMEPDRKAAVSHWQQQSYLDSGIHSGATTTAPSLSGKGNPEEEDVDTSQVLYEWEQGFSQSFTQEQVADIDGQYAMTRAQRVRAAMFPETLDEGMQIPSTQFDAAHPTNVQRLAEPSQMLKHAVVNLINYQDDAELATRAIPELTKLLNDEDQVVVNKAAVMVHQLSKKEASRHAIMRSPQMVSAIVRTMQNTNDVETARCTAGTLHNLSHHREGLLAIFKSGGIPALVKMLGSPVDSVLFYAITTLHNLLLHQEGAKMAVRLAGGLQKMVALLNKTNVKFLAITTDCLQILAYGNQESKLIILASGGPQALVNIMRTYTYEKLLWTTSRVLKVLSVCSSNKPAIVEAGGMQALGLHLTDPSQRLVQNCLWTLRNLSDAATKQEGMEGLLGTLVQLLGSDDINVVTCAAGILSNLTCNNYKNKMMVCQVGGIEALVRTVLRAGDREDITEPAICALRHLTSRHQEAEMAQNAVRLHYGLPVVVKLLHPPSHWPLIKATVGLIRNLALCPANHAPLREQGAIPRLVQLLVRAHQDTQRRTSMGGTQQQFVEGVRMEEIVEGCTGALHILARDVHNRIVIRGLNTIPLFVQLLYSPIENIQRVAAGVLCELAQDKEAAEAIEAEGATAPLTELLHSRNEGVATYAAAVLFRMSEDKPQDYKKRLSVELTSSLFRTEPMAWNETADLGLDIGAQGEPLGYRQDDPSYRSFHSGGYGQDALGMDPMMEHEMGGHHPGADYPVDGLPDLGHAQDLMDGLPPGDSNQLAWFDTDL
# B1: FP0723c (peptide)
# peptide: Ac-PQ[MA]ILD[R5]HVRRVWR-NH2
# modifications: staple 3-7
# B2: FP0783c (peptide)
# peptide: Ac-PQ[MI]ILD[R5]HVRRVWR-NH2
# modifications: staple 3-7; also: carbamate staple (-N(R')-C(O)-O-) by ring-closing olefin metathesis
# B3: FP0727c (peptide)
# peptide: Ac-PQ[MA]ILD[R7]HVRRVWR-NH2
# modifications: staple 3-7
# B4: FP0758c (peptide)
# peptide: Ac-PQ[R5]ILD[MB(3)]HVRRVWR-NH2
# modifications: staple 3-7
# B5: FP0731c (peptide)
# peptide: Ac-PQ[R4″]ILD[MA]HVRRVWR-NH2
# modifications: staple 3-7
# B6: FP0779c (peptide)
# peptide: Ac-PQ[MF]ILD[S5]HVRRVWR-NH2
# modifications: staple 3-7; also: carbamate staple (-N(R')-C(O)-O-) by ring-closing olefin metathesis
# B7: FP0752c (peptide)
# peptide: Ac-PQ[MB(3)]ILD[S6]HVRRVWR-NH2
# modifications: staple 3-7
# B8: FP0736c (peptide)
# peptide: Ac-PQ[S6]ILD[MA]HVRRVWR-NH2
# modifications: staple 3-7
# B9: FP0724c (peptide)
# peptide: Ac-PQ[MA]ILD[S5]HVRRVWR-NH2
# modifications: staple 3-7
# B10: FP0751c (peptide)
# peptide: Ac-PQ[MB(3)]ILD[S5]HVRRVWR-NH2
# modifications: staple 3-7
# B11: FP0733c (peptide)
# peptide: Ac-PQ[R5]ILD[MA]HVRRVWR-NH2
# modifications: staple 3-7
# B12: FP0776c (peptide)
# peptide: Ac-PQ[R5]ILD[MG]HVRRVWR-NH2
# modifications: staple 3-7; also: carbamate staple (-N(R')-C(O)-O-) by ring-closing olefin metathesis
# B13: FP0738c (peptide)
# peptide: Ac-PQ[S7]ILD[MA]HVRRVWR-NH2
# modifications: staple 3-7
# B14: FP0728c (peptide)
# peptide: Ac-PQ[MA]ILD[S7]HVRRVWR-NH2
# modifications: staple 3-7
# B15: FP0777c (peptide)
# peptide: Ac-PQ[R5]ILD[MI]HVRRVWR-NH2
# modifications: staple 3-7; also: carbamate staple (-N(R')-C(O)-O-) by ring-closing olefin metathesis
# B16: FP0735c (peptide)
# peptide: Ac-PQ[R6]ILD[MA]HVRRVWR-NH2
# modifications: staple 3-7
# B17: FP0743c (peptide)
# peptide: Ac-PQ[MC]ILD[R5]HVRRVWR-NH2
# modifications: staple 3-7
# B18: FP0721c (peptide)
# peptide: Ac-PQ[MA]ILD[R4]HVRRVWR-NH2
# modifications: staple 3-7
# B19: FP0778c (peptide)
# peptide: Ac-PQ[MD]ILD[S5]HVRRVWR-NH2
# modifications: staple 3-7; not fully specified; also: carbamate staple (-N(R')-C(O)-O-) by ring-closing olefin metathesis
# B20: FP0780c (peptide)
# peptide: Ac-PQ[MH]ILD[S5]HVRRVWR-NH2
# modifications: staple 3-7; also: carbamate staple (-N(R')-C(O)-O-) by ring-closing olefin metathesis
# B21: FP0763c (peptide)
# peptide: Ac-PQ[S7]ILD[MB(7)]HVRRVWR-NH2
# modifications: staple 3-7; reading uncertain
# notes: also called S7/PS
# B22: FP0761c (peptide)
# peptide: Ac-PQ[S6]ILD[MB(7)]HVRRVWR-NH2
# modifications: staple 3-7; reading uncertain
# B23: FP0630c (peptide)
# peptide: Ac-A[R8]ILDAHI[MB(5)]RV[dW]-NH2
# modifications: staple 2-9
# B24: FP0628_aib (peptide)
# peptide: Ac-A[Aib]ILDAHI[Aib]RVW-NH2
# SMILES: CC[C@H](C)[C@H](NC(=O)[C@H](Cc1c[nH]cn1)NC(=O)[C@H](C)NC(=O)[C@H](CC(=O)O)NC(=O)[C@H](CC(C)C)NC(=O)[C@@H](NC(=O)C(C)(C)NC(=O)[C@H](C)NC(C)=O)[C@@H](C)CC)C(=O)NC(C)(C)C(=O)N[C@@H](CCCNC(=N)N)C(=O)N[C@H](C(=O)N[C@@H](Cc1c[nH]c2ccccc12)C(N)=O)C(C)C
# B25: FP0768c (peptide)
# peptide: Ac-PQ[R7]ILD[MC]HVRRVWR-NH2
# modifications: staple 3-7; also: carbamate staple (-N(R')-C(O)-O-) by ring-closing olefin metathesis
# notes: also called R7/PR
# B26: FP0745c (peptide)
# peptide: Ac-PQ[MC]ILD[R6]HVRRVWR-NH2
# modifications: staple 3-7
# B27: FP0767c (peptide)
# peptide: Ac-PQ[R6]ILD[MC]HVRRVWR-NH2
# modifications: staple 3-7; also: carbamate staple (-N(R')-C(O)-O-) by ring-closing olefin metathesis
# notes: also called R6/PR
# B28: FP0644c (peptide)
# peptide: Ac-A[R8]I[αMeL]DAHI[MB(4)]RVW-NH2
# modifications: staple 2-9
# B29: FP0632c (peptide)
# peptide: Ac-A[R8]ILDAHI[MB(4)]R[αMeV]W-NH2
# modifications: staple 2-9
# B30: FP0725c (peptide)
# peptide: Ac-PQ[MA]ILD[R6]HVRRVWR-NH2
# modifications: staple 3-7
# notes: also called Az/R6
# B31: FP0765c (peptide)
# peptide: Ac-PQ[R4]ILD[MC]HVRRVWR-NH2
# modifications: staple 3-7
# notes: also called R4/PR
# B32: FP0766c (peptide)
# peptide: Ac-PQ[R5]ILD[MC]HVRRVWR-NH2
# modifications: staple 3-7
# notes: also called R5/PR
# Molecular target: T1, full-length beta-catenin
# Experiment: competition FP, grade of FP EC50 (+: 500-5000 nM)
# Description: (§1) In some embodiments, a competition fluorescence polarization assay is used to assess binding of provided compounds to beta-catenin. In an exemplary procedure, solutions of provided compounds, e.g., provided stapled peptides, were prepared in a buffer (e.g., 50 mM Tris pH 8.0, 250 mM NaCl, 2% glycerol, 0.5 mM EDTA, 0.02% w/v sodium azide) using a 3-fold serial dilution from 5 µM. Probe solution (15 nM full-length ß-Catenin, 20 nM FITC labeled peptide in buffer) was prepared and incubated for a period of time, e.g., 5 minutes, and the a volume, e.g., 40 µL per well plated in suitable plate, e.g., a black polystyrene 384-well plate (Corning). Equal volume of the serial diluted peptide was added to the plate and incubated protected from light for 15 minutes prior to read. Reads were performed on a Spectramax M5 (Molecular Devices) in duplicate. Suitable probe was FITC-PEG1-PQ-S5-ILD-S5-HVRRVWR (SEQ ID NO: 1) (hydrocarbon staple formed by two S5 via olefin metathesis) and/or FITC-bA-PQ-S5-ILD-S5-HVRRVWR (SEQ ID NO: 3) (hydrocarbon staple formed by two S5 via olefin metathesis). […] Another peptide, FPO217c (Ac-AR_8ILDAHIM$B5$RVW (SEQ ID NO: 280), with N-terminal proline removed and valine replaced with isoleucine compared to FP0025c) was prepared.
row,Binder,FP EC50
1,B1,500 to 5000 nM
2,B2,500 to 5000 nM
3,B3,500 to 5000 nM
4,B4,500 to 5000 nM
5,B5,500 to 5000 nM
6,B6,500 to 5000 nM
7,B7,500 to 5000 nM
8,B8,500 to 5000 nM
9,B9,500 to 5000 nM
10,B10,500 to 5000 nM
11,B11,500 to 5000 nM
12,B12,500 to 5000 nM
13,B13,500 to 5000 nM
14,B14,500 to 5000 nM
15,B15,500 to 5000 nM
16,B16,500 to 5000 nM
17,B17,500 to 5000 nM
18,B18,500 to 5000 nM
19,B19,500 to 5000 nM
20,B20,500 to 5000 nM

# Molecular target: T1, full-length beta-catenin
# Experiment: competition FP, grade of FP EC50 (++: 100-500 nM)
# Description: as §1
row,Binder,FP EC50
1,B21,100 to 500 nM
2,B22,100 to 500 nM
3,B23,100 to 500 nM
4,B24,100 to 500 nM
5,B25,100 to 500 nM
6,B26,100 to 500 nM
7,B27,100 to 500 nM
8,B28,100 to 500 nM
9,B29,100 to 500 nM

# Molecular target: T1, full-length beta-catenin
# Experiment: competition FP
# Description: as §1
row,Binder,EC50
1,B1,1400 nM
2,B30,80 nM
3,B21,115 nM
4,B22,460 nM
5,B2,990 nM
6,B3,520 nM
7,B4,2700 nM
8,B25,150 nM
9,B5,4700 nM
10,B31,30 nM
11,B6,1300 nM
12,B7,2600 nM
13,B8,890 nM
14,B9,540 nM
15,B26,110 nM
16,B10,2000 nM
17,B11,920 nM
18,B27,110 nM
19,B12,570 nM
20,B13,1800 nM
21,B14,2100 nM
22,B15,560 nM
23,B16,1600 nM
24,B32,20 nM
25,B17,740 nM
26,B18,1300 nM
27,B19,1000 nM
28,B20,1700 nM

# Molecular target: T1, full-length beta-catenin
# Experiment: competition FP, grade of FP EC50 (+++: <=100 nM)
# Description: as §1
row,Binder,FP EC50
1,B30,≤ 100 nM
2,B31,≤ 100 nM
3,B32,≤ 100 nM
